In test [1] the target is T1, human CD27 (HA-tagged, expressed in HEK293 cells) (human, UniProt P26842 20-260, limits assumed).
T1 construct: Plasmid printed as 'pcDNA3-HA-CD2'; not shown: HA tag
T1 sequence (looked up): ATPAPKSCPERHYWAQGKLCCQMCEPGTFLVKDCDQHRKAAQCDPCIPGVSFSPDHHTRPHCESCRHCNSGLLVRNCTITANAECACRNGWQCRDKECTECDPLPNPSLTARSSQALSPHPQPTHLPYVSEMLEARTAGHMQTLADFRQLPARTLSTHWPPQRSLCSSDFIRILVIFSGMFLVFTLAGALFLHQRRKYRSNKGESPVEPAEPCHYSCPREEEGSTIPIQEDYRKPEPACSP
The experiment in a line: co-immunoprecipitation, HEK293 co-transfection. As to the method: In co-immunoprecipitation experiment, cells were lysed in IP buffer (Thermo Scientific) and Roche complete protease inhibitor for 10 minutes, followed by the addition of benzonase (sigma) for 25 minutes at room temperature. The lysate was then centrifuged at 15,000 rpm at 4° C. to remove the precipitate. The supernatant was then incubated with primary antibody slowly rotated overnight at 4° C., followed by the addition of protein A or protein G dynabeads and incubated at 4° C. for 2 hours, washed for 4 times in PBST (PBS with 0.01% Tween 20), eluted with 50 mM DTT in SDS sample buffer for 10 minutes at 100° C., separated with SDS, and immunoblotted as previously described.
To further confirm which part of SEMG-2 binds to CD27, fragments of SEMG2 protein were designed. The amino acid sequence of full-length SEMG2 protein (SEQ ID NO:1) was divided into 6 segments of sequences, fused with GFP and named as SEMG2-P1, SEMG2-P2, SEMG2-P3, SEMG2-P4, SEMG2-P5 and SEMG2-P6 (See Table 1 for specific sequences, with corresponding abbreviation as P1-P6 respectively). Plasmids expressing these amino acid sequences were co-transfected with CD27 into HEK293 cells, and co-immunoprecipitation experiments were performed to identify the main fragment of SEMG2 that binds to CD27.

For test [2], the target named is T2, human SEMG2 full-length protein (human, UniProt Q02383 24-582, limits assumed).
T2 construct: also called SEMG2 protein; semenogelin 2
T2 sequence: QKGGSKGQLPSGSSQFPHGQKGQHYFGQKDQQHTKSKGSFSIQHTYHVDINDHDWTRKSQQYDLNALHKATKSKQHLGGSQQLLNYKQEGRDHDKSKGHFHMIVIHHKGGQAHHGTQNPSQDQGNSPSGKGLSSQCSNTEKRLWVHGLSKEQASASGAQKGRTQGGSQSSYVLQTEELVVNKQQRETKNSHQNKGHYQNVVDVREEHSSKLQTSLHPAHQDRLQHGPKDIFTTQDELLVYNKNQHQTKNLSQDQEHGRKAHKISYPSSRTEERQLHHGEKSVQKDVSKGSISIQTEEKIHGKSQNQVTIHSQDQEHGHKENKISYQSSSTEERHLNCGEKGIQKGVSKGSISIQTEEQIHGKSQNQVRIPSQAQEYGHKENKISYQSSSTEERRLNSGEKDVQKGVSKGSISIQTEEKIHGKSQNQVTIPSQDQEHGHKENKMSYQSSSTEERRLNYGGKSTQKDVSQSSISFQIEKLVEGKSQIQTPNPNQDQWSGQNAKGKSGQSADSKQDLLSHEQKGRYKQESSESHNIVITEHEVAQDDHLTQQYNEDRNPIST
The experiment in a line: biolayer interferometry (ForteBio Blitz or Gator). How it is done: The equilibrium dissociation constant (KD) of the antibody of the present invention binding to human SEMG2 was determined by biolayer interferometry (ForteBio Bltz or Gator instrument). […] 100 μl of SD buffer, antibody and SEMG2 were added to a 96-well black polystyrene half area microplate, respectively. Select the sensor location based on the sample location layout. KD values were analyzed using molecular interaction analysis software. In the experiments of the assays, the affinity constants of murine monoclonal antibodies and human antibodies H88-67, H88-93 and H88-96 are shown in Table 8, and the affinity and dissociation curves of SEMG2 and corresponding proteins are shown in FIG. 25.
(BLI is a label-free optical method that tracks binding on a fibre tip over time.)

For test [3], the target named is T2, human SEMG2 full-length protein. The experiment in a line: ELISA on SEMG2; the EC50 table prints no unit, the axis is log (antibody concentration, nM).
The target is the same in test [4]. The test is described as above. The source holds these as a separate data set.
Test [5] has as its target T3, BSA-conjugated human SEMG2 (497-509) polypeptide (human, also: coupled to BSA, site not given here).
T3 peptide: QIEKLVEGKSQIQ
The experiment in a line: ELISA on BSA-S2 (497-509); curve without upper plateau; the EC50 table prints no unit, the axis is log (antibody concentration, nM). A general note: An ELISA detects its analyte on a solid surface through an enzyme-linked reagent.

Test [6] concerns the target T2, human SEMG2 full-length protein. Nature of the test: ELISA (FIG. 21B-D).
In test [7] the target is T3, BSA-conjugated human SEMG2 (497-509) …. Nature of the test: ELISA (FIG. 21B-D).
For test [8], the target named is T2, human SEMG2 full-length protein. The experiment in a line: ELISA on SEMG2; the EC50 table prints no unit, the axis is log (antibody concentration, nM). This is another data set of the same source.
The target is the same in test [9]. Nature of the test: ELISA on SEMG2 protein; the EC50 table prints no unit, the axis is log (antibody concentration, nM).

Positions count from the first letter of the chain named. No end group written: not given here. Some results are limits rather than exact numbers.

B1: SEMG2-P6 fused with GFP (other)
chain: EQKGRYKQESSESHNIVITEHEVAQDDHLTQQYNEDRNPIST
modifications: also: fused to GFP, variant, linker and side of fusion not given here
notes: not shown: GFP fusion partner
As for B1, the binding result in [1] is listed as “no binding”.

B2: H88-67 (antibody, V domains shown)
VH: QVQLLESGGGVVQPGRSLRLSCAASGFTFSSYAMHWVRQAPGKGLEWVAVISYDGSNKYYADSVKGRFTISRDNSKNTLYLQMNSLRAEDTAVYYCARMDGSGSPDYWGQGTLVTVSS
VL: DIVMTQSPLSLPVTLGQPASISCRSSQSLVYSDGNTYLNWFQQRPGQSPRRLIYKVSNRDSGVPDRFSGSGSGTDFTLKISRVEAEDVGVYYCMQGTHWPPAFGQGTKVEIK
notes: Fully human full-length antibody built from a phage Fab
Molecule B2 displayed a Kd in test [2] of 28.4 nM. In addition, the EC50 in [3] was found to be 0.863 nM; in test [4], 2.13 nM; in [5], 57.5 nM.

B3: 96-10V-10 (antibody, V domains shown)
VH: QVQLLESGGGLVQPGGSLRLSCSASGFTFSSYAMHWVRQAPGKGLEYVSAISSNGGSTYYADSVKGRFTISRDNSKNTLYLQMSSLRAEDTAVYYCVIEGGSTGSTVSGAFDIWGQGTMVTVSS
VL: DIQMIQSPPSVSASVGDTVTIACRANQGIDSWLAWYQQKPGRAPKLLIYSASRLQSGVPSRFSGGGSGTDFALTISNLQPEDFATYYCQQALSLPITFGQGTRLEIK
B3: the “fold higher affinity than the parent antibody (H88-96)” value in [6] and in [7] was over 10 fold throughout. Further, the values for the EC50 in [8] and in test [5] were 0.358 nM and 32.2 nM, respectively.

B4: H88-96 (antibody, V domains shown)
VH: B3 VH with G104T, S105G, V107T
VL: B3 VL
notes: as for B2
In test [2], B4 showed a Kd of 14 nM. In addition, the EC50 was 9.3 nM in [3], 14 nM in test [8] and 95.7 nM in test [5].

B5: MM05V4V2 (antibody, V domains shown)
VH: QVQLVQSGAEVKKPGASVKVSCKASGYTFTSYWMNWVRQAPGQGLEWVGMIDPSDSETHYAQKFQGRVTITADKSTSTVYMELSSLRSEDTAVYYCARYLGGKEGSFDYWGQGTLVTVSS
VL: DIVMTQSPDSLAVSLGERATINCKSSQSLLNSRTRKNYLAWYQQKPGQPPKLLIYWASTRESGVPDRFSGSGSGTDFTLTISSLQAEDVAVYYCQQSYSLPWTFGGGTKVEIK
notes: humanized MM05 antibody, one member of the group m49
The molecule B5 showed an EC50 in test [9] of 0.18 nM.

B6: MM05V3V2 (antibody, V domains shown)
VH: B5 VH with A72V
VL: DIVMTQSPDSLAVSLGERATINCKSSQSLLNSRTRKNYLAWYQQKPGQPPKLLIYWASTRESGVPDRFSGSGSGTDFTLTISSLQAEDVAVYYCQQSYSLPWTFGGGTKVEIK
notes: as for B5
In [9], B6 had an EC50 of 0.092 nM.

B7: MM05V4V1 (antibody, V domains shown)
VH: B5 VH
VL: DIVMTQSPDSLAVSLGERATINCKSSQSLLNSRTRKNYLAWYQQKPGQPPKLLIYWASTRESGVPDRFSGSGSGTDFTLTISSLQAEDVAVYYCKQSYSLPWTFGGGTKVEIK
notes: as for B5
The molecule B7 showed an EC50 in test [9] of 0.123 nM.

In general, Kd refers to the free concentration of one partner at which half of the binding sites on the other are occupied at equilibrium, for simple one-to-one binding. A word on the EC50: it is the midpoint of the concentration-response curve.

The record behind these values is patent US20230080534A1 (SHANGHAI BIOTROY BIOTECHNIQUE, published 2023).
